T1: Lsb3, P43603
T1 sequence (P43603 385-451, looked up): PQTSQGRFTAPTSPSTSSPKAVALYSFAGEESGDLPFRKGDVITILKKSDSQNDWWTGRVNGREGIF

T2: Cdc25, P04821
T2 sequence (P04821 50-136, looked up): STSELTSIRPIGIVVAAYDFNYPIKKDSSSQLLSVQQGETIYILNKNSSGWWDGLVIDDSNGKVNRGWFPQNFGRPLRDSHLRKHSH

T3: Pex13, P80667
T3 sequence (P80667 295-386, looked up): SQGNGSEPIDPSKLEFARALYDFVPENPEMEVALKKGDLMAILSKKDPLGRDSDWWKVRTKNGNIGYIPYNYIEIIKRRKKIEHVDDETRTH

T4: Boi2, P39969
T4 sequence (P39969 32-116, looked up): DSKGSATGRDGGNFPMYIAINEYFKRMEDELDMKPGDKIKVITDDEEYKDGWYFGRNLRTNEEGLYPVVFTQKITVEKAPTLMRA

T5: Hof1, Q05080
T5 sequence (Q05080 590-669, looked up): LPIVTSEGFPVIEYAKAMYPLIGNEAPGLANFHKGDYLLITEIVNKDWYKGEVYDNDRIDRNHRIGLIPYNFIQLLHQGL

T6: Nbp2, Q12163
T6 sequence (Q12163 103-180, looked up): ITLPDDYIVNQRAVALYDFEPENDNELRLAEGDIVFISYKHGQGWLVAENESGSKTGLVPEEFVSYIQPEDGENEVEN

T7: Cyk3, Q07533
T7 sequence (Q07533 1-83, looked up): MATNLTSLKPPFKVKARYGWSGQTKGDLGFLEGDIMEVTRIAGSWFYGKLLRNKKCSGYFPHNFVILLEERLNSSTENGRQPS

T8: Bzz1-2, P38822
T8 sequence (P38822 568-633, looked up): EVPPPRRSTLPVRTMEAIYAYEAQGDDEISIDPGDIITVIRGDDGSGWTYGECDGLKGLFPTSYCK

T9: Fus1, P11710
T9 sequence (P11710 432-512, looked up): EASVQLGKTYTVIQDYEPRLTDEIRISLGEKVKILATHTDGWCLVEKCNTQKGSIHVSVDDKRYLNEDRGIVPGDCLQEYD

T10: Lsb1, P53281
T10 sequence (P53281 45-122, looked up): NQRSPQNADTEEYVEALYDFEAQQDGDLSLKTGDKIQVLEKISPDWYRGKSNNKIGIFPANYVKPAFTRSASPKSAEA

T11: Bzz1-1, P38822
T11 sequence (P38822 478-572, looked up): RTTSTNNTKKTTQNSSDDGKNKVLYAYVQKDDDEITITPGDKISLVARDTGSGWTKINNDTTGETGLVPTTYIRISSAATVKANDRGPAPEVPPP

T12: Abp1, P15891
T12 sequence (P15891 535-592, looked up): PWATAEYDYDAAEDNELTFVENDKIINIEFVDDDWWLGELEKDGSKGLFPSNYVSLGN

T13: Lsb4, P32793
T13 sequence (P32793 402-468, looked up): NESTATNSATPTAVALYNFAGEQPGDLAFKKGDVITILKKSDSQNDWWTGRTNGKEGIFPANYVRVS

T14: Pin3, Q06449
T14 sequence (Q06449 53-122, looked up): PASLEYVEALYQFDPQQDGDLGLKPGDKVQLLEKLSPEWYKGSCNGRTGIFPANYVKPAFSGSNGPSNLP

T15: Sla1-2, P32790
T15 sequence (P32790 60-140, looked up): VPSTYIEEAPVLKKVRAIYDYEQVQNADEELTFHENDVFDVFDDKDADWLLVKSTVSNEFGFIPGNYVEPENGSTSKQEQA

T16: Sla1-3, P32790
T16 sequence (P32790 344-424, looked up): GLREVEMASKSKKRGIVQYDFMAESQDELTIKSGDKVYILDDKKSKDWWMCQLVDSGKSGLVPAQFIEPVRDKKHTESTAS

T17: Hse1, P38753
T17 sequence (P38753 208-285, looked up): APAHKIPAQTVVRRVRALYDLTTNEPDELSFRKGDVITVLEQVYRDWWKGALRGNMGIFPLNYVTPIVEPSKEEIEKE

T18: Bbc1, P47068
T18 sequence (P47068 1-78, looked up): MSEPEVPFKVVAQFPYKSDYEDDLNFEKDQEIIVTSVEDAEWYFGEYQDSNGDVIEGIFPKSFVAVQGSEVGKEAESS

T19: Bud14, P27637
T19 sequence (P27637 247-328, looked up): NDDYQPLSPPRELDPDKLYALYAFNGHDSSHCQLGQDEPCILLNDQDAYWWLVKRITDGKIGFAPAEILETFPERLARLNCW

T20: Myo5, Q04439
T20 sequence (Q04439 1072-1160, looked up): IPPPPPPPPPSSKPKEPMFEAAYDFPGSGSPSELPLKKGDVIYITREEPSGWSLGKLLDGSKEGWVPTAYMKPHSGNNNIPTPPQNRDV

T21: Boi1, P38041
T21 sequence (P38041 1-86, looked up): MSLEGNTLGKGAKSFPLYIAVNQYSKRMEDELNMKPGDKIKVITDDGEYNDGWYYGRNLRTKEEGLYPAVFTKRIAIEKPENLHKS


What was measured:
Test in all cases: SPOT array
[1] = target: T1, Lsb3, P43603; settings: median of control spots 406
[2] = target: T2, Cdc25, P04821; settings: median of control spots 969
[3] = target: Bem1-2, P29366; settings: median of control spots 4347
Bem1-2, P29366, sequence (P29366 139-227): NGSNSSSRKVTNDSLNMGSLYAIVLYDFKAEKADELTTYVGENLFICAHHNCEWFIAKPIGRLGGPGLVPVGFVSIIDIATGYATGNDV

[4] = target: T3, Pex13, P80667; settings: median of control spots 1341
[5] = target: T4, Boi2, P39969; settings: median of control spots 1161
[6] = target: T5, Hof1, Q05080; settings: median of control spots 4086
[7] = target: T6, Nbp2, Q12163; settings: median of control spots 357
[8] = target: T7, Cyk3, Q07533; settings: median of control spots 1451
[9] = target: T8, Bzz1-2, P38822; settings: median of control spots 4538
[10] = target: T9, Fus1, P11710; settings: median of control spots 1200
[11] = target: T10, Lsb1, P53281; settings: median of control spots 388
[12] = target: Myo3, P36006; settings: median of control spots 468
[13] = target: Sho1, P40073; settings: median of control spots 1148
Sho1, P40073, sequence (P40073 287-367): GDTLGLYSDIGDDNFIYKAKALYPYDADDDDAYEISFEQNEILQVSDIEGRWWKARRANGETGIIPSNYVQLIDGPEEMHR

[14] = target: Rvs167, P39743; settings: median of control spots 2707
Rvs167, P39743, sequence (P39743 419-482): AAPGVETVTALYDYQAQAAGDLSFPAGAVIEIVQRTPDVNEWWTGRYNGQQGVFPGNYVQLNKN

[15] = target: T11, Bzz1-1, P38822; settings: median of control spots 4446
[16] = target: T12, Abp1, P15891; settings: median of control spots 935
[17] = target: T13, Lsb4, P32793; settings: median of control spots 397
[18] = target: T14, Pin3, Q06449; settings: median of control spots 2171
[19] = target: T15, Sla1-2, P32790; settings: median of control spots 712
[20] = target: Bem1-1, P29366; settings: median of control spots 4282
Bem1-1, P29366, sequence (P29366 55-141): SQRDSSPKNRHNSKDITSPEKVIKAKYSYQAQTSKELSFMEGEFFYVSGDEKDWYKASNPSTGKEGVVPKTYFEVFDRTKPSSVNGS

[21] = target: T16, Sla1-3, P32790; settings: median of control spots 5475
[22] = target: T17, Hse1, P38753; settings: median of control spots 1727
[23] = target: T18, Bbc1, P47068; settings: median of control spots 796
[24] = target: GST; settings: median of control spots 978
[25] = target: T19, Bud14, P27637; settings: median of control spots 956
[26] = target: T20, Myo5, Q04439; settings: median of control spots 471
[27] = target: T21, Boi1, P38041; settings: median of control spots 1162

| SPOT intensity [1] | SPOT intensity [2] | SPOT intensity [3] | SPOT intensity [4] | SPOT intensity [5] | SPOT intensity [6] | SPOT intensity [7] | SPOT intensity [8] | SPOT intensity [9] | SPOT intensity [10] | SPOT intensity [11] | SPOT intensity [12] | SPOT intensity [13] | SPOT intensity [14] | SPOT intensity [15] | SPOT intensity [16] | SPOT intensity [17] | SPOT intensity [18] | SPOT intensity [19] | SPOT intensity [20] | Binder | also measured |
| --- | --- | --- | --- | --- | --- | --- | --- | --- | --- | --- | --- | --- | --- | --- | --- | --- | --- | --- | --- | --- | --- |
| 53 | 4 | 0 | 352 | 2 | 6 | 15 | 0 | 2 | 0 | 47 | 72 | 79 | 0 | 0 | 231 | 56 | 115 | 18 | 0 | IRMPSNPALPKKLLN | SPOT intensity [21]: 0; SPOT intensity [22]: 16; SPOT intensity [23]: 2; SPOT intensity [24]: 0; SPOT intensity [25]: 1; SPOT intensity [26]: 81; SPOT intensity [27]: 0 |
| 0 | 5 | 1860 | 13 | 0 | 0 | 750 | 0 | 0 | 0 | 17 | 413 | 1 | 0 | 1 | 19 | 4 | 5 | 0 | 0 | AHFQPQRTAPKPPIS | SPOT intensity [21]: 4; SPOT intensity [22]: 0; SPOT intensity [23]: 101; SPOT intensity [24]: 0; SPOT intensity [25]: 1; SPOT intensity [26]: 104; SPOT intensity [27]: 0 |
| 0 | 0 | 0 | 54 | 1 | 0 | 1 | 1 | 0 | 0 | 2 | 22 | 0 | 0 | 0 | 44 | 9 | 43 | 1 | 0 | IAPIPMPKPNPTHIS | SPOT intensity [21]: 0; SPOT intensity [22]: 0; SPOT intensity [23]: 0; SPOT intensity [24]: 0; SPOT intensity [25]: 0; SPOT intensity [26]: 7; SPOT intensity [27]: 0 |
| 138 | 37 | 75 | 348 | 1 | 13 | 71 | 1 | 13 | 0 | 94 | 5 | 95 | 4060 | 0 | 125 | 163 | 26 | 0 | 0 | RPVPRRPSQPLNTLS | SPOT intensity [21]: 31; SPOT intensity [22]: 34; SPOT intensity [23]: 423; SPOT intensity [24]: 0; SPOT intensity [25]: 11; SPOT intensity [26]: 0; SPOT intensity [27]: 0 |

Reference: publication PMC2756588
